Measured values as given in patent publication US7807396.

T1: human β-endorphin1-31, P01189
T1 chain: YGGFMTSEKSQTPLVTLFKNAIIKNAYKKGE

B1: recombinant rat insulysin with an N-terminal His6 affinity tag, expressed in baculovirus-infected Sf9 cells (protein)
chain: MNNPAIQRIEDHIVKSPEDKREYRGLELANGIKVLLISDPTTDKSSAALDVHIGSLSDPPNIPGLSHFCEHMLFLGTKKYPKENEYSQFLSEHAGSSNAFTSGEHTNYYFDVSHEHLEGALDRFAQFFLCPLFDASCKDREVNAVDSEHEKNVMNDAWRLFQLEKATGNPKHPFSKFGTGNKYTLETRPNQEGIDVREELLKFHSTYYSSNLMAICVLGRESLDDLTNLVVKLFSEVENKNVPLPEFPEHPFQEEHLKQLYKIVPIKDIRNLYVTFPIPDLQQYYKSNPGHYLGHLIGHEGPGSLLSELKSKGWVNTLVGGQKEGARGFMFFIINVDLTEEGLLHVEDIILHMFQYIQKLRAEGPQEWVFQECKDLNAVAFRFKDKERPRGYTSKIAGKLHYYPLNGVLTAEYLLEEFRPDLIDMVLDKLRPENVRVAIVSKSFEGKTDRTEQWYGTQYKQEAIPEDVIQKWQNADLNGKFKLPTKNEFIPTNFEILALEKDATPYPALIKDTAMSKLWFKQDDKFFLPKACLNFEFFSPFAYVDPLHCNMAYLYLELLKDSLNEYAYAAELAGLSYDLQNTIYGMYLSVKGYNDKQPILLKKITEKMATFEIDKKRFEIIKEAYMRSLNNFRAEQPHQHAMYYLRLLMTEVAWTKDELKEALDDVTLPRLKAFIPQLLSRLHIEALLHGNITKQAALGVMQMVEDTLIEHAHTKPLLPSQLVRYREVQLPDRGWFVYQRRNEVHNNCGIEIYYQTDMQSTSENMFLELFCQIISEPCFNTLRTKEQLGYIVFSGPRRANGIQGLRFIIQSEKPPHYLESRVEAFLITMEKAIEDMTEEAFQKHIQALAIRRLDKPKKLSAECAKYWGEIISQQYNYDRDNIEVAYLKTLSKDDIIKFYKEMLAVDAPRRHKVSVHVLAREMDSCPVVGEFPSQNDINLSEAPPLPQPEVIHNMTEFKRGLPLFPLVKPHINFMAAKL
B2: human neprilysin expressed from a lentiviral construct in primary neuronal cultures of neprilysin deficient mice (protein)
chain: GKSESQMDITDINTPKPKKKQRWTPLEISLSVLVLLLTIIAVTMIALYATYDDGICKSSDCIKSAARLIQNMDATTEPCTDFFKYACGGWLKRNVIPETSSRYGNFDILRDELEVVLKDVLQEPKTEDIVAVQKAKALYRSCINESAIDSRGGEPLLKLLPDIYGWPVATENWEQKYGASWTAEKAIAQLNSKYGKKVLINLFVGTDDKNSVNHVIHIDQPRLGLPSRDYYECTGIYKEACTAYVDFMISVARLIRQEERLPIDENQLALEMNKVMELEKEIANATAKPEDRNDPMLLYNKMTLAQIQNNFSLEINGKPFSWLNFTNEIMSTVNISITNEEDVVVYAPEYLTKLKPILTKYSARDLQNLMSWRFIMDLVSSLSRTYKESRNAFRKALYGTTSETATWRRCANYVNGNMENAVGRLYVEAAFAGESKHVVEDLIAQIREVFIQTLDDLTWMDAETKKRAEEKALAIKERIGYPDDIVSNDNKLNNEYLELNYKEDEYFENIIQNLKFSQSKQLKKLREKVDKDEWISGAAVVNAFYSSGRNQIVFPAGILQPPFFSAQQSNSLNYGGIGMVIGHEITHGFDDNGRNFNKDGDLVDWWTQQSASNFKEQSQCMVYQYGNFSWDLAGGQHLNGINTLGENIADNGGLGQAYRAYQNYIKKNGEEKLLPGLDLNHKQLFFLNFAQVWCGTYRPEYAVNSIKTDVHSPGNFRIIGTLQNSAEFSEAFHCRKNSYMNPEKKCRVW

How the values were obtained:
[1] = target: aggregated amyloid β1-40 pre-coated on 96 well plates (synthetic amyloid plaque, synthaloid)
[2] = target: amyloid beta peptide Aβ1-40
[3] = target: amyloid beta peptide Aβ1-42
[4] = target: T1, human β-endorphin1-31, P01189

Protein	release of radioactivity from 125I-Aβ1-40 first deposited onto synthetic amyloid [1]	prevention of deposition of radiolabeled Aβ1-40 onto synthaloid, 60 minutes preincubation with insulysin (FIG. 9B) [2]	prevention of deposition of radiolabeled Aβ1-40 onto synthaloid, insulysin added at zero time (FIG. 9A) [2]	rate of cleavage of 25 µM Aβ1-40 [2]	sparing of neurotoxic effects on primary rat cortical neurons (30 µM Aβ1-40, 48 hrs) [2]	sparing of neurotoxic effects on primary rat cortical neurons (25 µM Aβ1-42, 48 hrs) [3]	specific activity of the recombinant enzyme (disappearance of β-endorphin by HPLC) [4]	125I-Aβ1-40 peptide degradation in primary neuronal cultures [2]
B1	After a 24 hr incubation with 5 µg of insulysin no radioactivity was released	50 ng insulysin is able to prevent the deposition of radiolabeled Aβ1-40 onto the synthetic amyloid	50 ng of insulysin is able to prevent the deposition of radiolabeled Aβ1-40	1.2 µmols/min/mg enzyme	as little as 50 ng of insulysin was effective in sparing the neurotoxic effects of Aβ1-40	500 ng of insulysin was effective in sparing the neurotoxic effects of Aβ1-42	2.6 µmols/min/mg	
B2								neprilysin expressing neuronal cell cultures virtually destroyed all Aβ peptide in comparison to the controls
